# In patent US20230346934A1:
# Biological target: PDL1 on DMS 273-PDL1 target cells (UniProt Q9NZQ7)
# Experiment: cell-based or functional assay
# Sequence of UniProt Q9NZQ7 (Q9NZQ7 19-290 limits assumed): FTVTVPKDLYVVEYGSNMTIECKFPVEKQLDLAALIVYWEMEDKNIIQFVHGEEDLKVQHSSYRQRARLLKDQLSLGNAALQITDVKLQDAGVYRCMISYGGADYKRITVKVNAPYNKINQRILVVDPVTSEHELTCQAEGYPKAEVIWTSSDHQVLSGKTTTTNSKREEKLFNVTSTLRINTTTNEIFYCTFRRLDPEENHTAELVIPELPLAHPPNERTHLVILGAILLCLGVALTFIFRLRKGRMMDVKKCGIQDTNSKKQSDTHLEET
row,"cytokine secretion (IL-2, IFNγ; Meso Scale Discovery)",Substance
1,> 10 fold,HA PD1.CD28 chimeric switch receptor
2,> 10 fold,WT PD1.CD28 chimeric switch receptor
